Measurements from the supplement of paper PMC5998384.

Columns and labels:
HeLa Kyoto [1] = assay: solubility in G1/S (NP-40 vs SDS abundance) (log2 ratio); higher = more soluble; details: cell cycle stage: G1/S
HeLa Kyoto [2] = assay: solubility change mitosis vs G1/S (difference of NP-40 vs SDS log2 ratios) (log2 ratio difference); higher = more soluble in mitosis
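For solubility change mitosis vs G1/S (difference of NP-40 vs SDS log2 ratios) in this document: synchronized HeLa Kyoto cells (double thymidine block for G1/S, nocodazole release for mitosis), protein amounts in NP-40 versus SDS lysates quantified by mass spectrometry, three biological replicates.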
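For solubility in G1/S (NP-40 vs SDS abundance) in this document: HeLa Kyoto cells arrested at G1/S by double thymidine block, proteins quantified by TMT10plex mass spectrometry in mild NP-40 versus SDS extracts, three biological replicates.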

| Sequence | solubility in G1/S (log2) (HeLa Kyoto [1]) | solubility change mitosis (log2) (HeLa Kyoto [2]) |
| --- | --- | --- |
| MPPLKSPAAFHEQRRSLERARTEDYLKRKIRSRPERSELVRMHILEETSAEPSLQAKQLKLKRARLADDLNEKIAQRPGPMELVEKNILPVESSLKEAIIVGQVNYPKVADSSSFDEDSSDALSPEQPASHESQGSVPSPLEARVSEPLLSATSASPTQVVSQLPMGRDSREMLFLAEQPPLPPPPLLPPSLTNGTTIPTAKSTPTLIKQSQPKSASEKSQRSKKAKELKPKVKKLKYHQYIPPDQKQDRGAPPMDSSYAKILQQQQLFLQLQILNQQQQQHHNYQAILPAPPKSAGEALGSSGTPPVRSLSTTNSSSSSGAPGPCGLARQNSTSLTGKPGALPANLDDMKVAELKQELKLRSLPVSGTKTELIERLRAYQDQISPVPGAPKAPAATSILHKAGEVVVAFPAARLSTGPALVAAGLAPAEVVVATVASSGVVKFGSTGSTPPVSPTPSERSLLSTGDENSTPGDTFGEMVTSPLTQLTLQASPLQILVKEEGPRAGSCCLSPGGRAELEGRDKDQMLQEKDKQIEALTRMLRQKQQLVERLKLQLEQEKRAQQPAPAPAPLGTPVKQENSFSSCQLSQQPLGPAHPFNPSLAAPATNHIDPCAVAPGPPSVVVKQEALQPEPEPVPAPQLLLGPQGPSLIKGVAPPTLITDSTGTHLVLTVTNKNADSPGLSSGSPQQPSSQPGSPAPAPSAQMDLEHPLQPLFGTPTSLLKKEPPGYEEAMSQQPKQQENGSSSQQMDDLFDILIQSGEISADFKEPPSLPGKEKPSPKTVCGSPLAAQPSPSAELPQAAPPPPGSPSLPGRLEDFLESSTGLPLLTSGHDGPEPLSLIDDLHSQMLSSTAILDHPPSPMDTSELHFVPEPSSTMGLDLADGHLDSMDWLELSSGGPVLSLAPLSTTAPSLFSTDFLDGHDLQLHWDSCL [MKL1] | 0.297 | -0.244 |
| MPRCPAGAMDEGPVDLRTRPKAAGLPGAALPLRKRPLRAPSPEPAAPRGAAGLVVPLDPLRGGCDLPAVPGPPHGLARPEALYYPGALLPLYPTRAMGSPFPLVNLPTPLYPMMCPMEHPLSADIAMATRADEDGDTPLHIAVVQGNLPAVHRLVNLFQQGGRELDIYNNLRQTPLHLAVITTLPSVVRLLVTAGASPMALDRHGQTAAHLACEHRSPTCLRALLDSAAPGTLDLEARNYDGLTALHVAVNTECQETVQLLLERGADIDAVDIKSGRSPLIHAVENNSLSMVQLLLQHGANVNAQMYSGSSALHSASGRGLLPLVRTLVRSGADSSLKNCHNDTPLMVARSRRVIDILRGKATRPASTSQPDPSPDRSANTSPESSSRLSSNGLLSASPSSSPSQSPPRDPPGFPMAPPNFFLPSPSPPAFLPFAGVLRGPGRPVPPSPAPGGS [BCL3] | 0.0652 | -0.154 |
| MPTWGARPASPDRFAVSAEAENKVREQQPHVERIFSVGVSVLPKDCPDNPHIWLQLEGPKENASRAKEYLKGLCSPELQDEIHYPPKLHCIFLGAQGFFLDCLAWSTSAHLVPRAPGSLMISGLTEAFVMAQSRVEELAERLSWDFTPGPSSGASQCTGVLRDFSALLQSPGDAHREALLQLPLAVQEELLSLVQEASSGQGPGALASWEGRSSALLGAQCQGVRAPPSDGRESLDTGSMGPGDCRGARGDTYAVEKEGGKQGGPREMDWGWKELPGEEAWEREVALRPQSVGGGARESAPLKGKALGKEEIALGGGGFCVHREPPGAHGSCHRAAQSRGASLLQRLHNGNASPPRVPSPPPAPEPPWHCGDRGDCGDRGDVGDRGDKQQGMARGRGPQWKRGARGGNLVTGTQRFKEALQDPFTLCLANVPGQPDLRHIVIDGSNVAMVHGLQHYFSSRGIAIAVQYFWDRGHRDITVFVPQWRFSKDAKVRESHFLQKLYSLSLLSLTPSRVMDGKRISSYDDRFMVKLAEETDGIIVSNDQFRDLAEESEKWMAIIRERLLPFTFVGNLFMVPDDPLGRNGPTLDEFLKKPARTQGSSKAQHPSRGFAEHGKQQQGREEEKGSGGIRKTRETERLRRQLLEVFWGQDHKVDFILQREPYCRDINQLSEALLSLNF [KHNYN] | 0.384 | -0.219 |
| MPVERMRMRPWLEEQINSNTIPGLKWLNKEKKIFQIPWMHAARHGWDVEKDAPLFRNWAIHTGKHQPGVDKPDPKTWKANFRCAMNSLPDIEEVKDKSIKKGNNAFRVYRMLPLSERPSKKGKKPKTEKEDKVKHIKQEPVESSLGLSNGVSDLSPEYAVLTSTIKNEVDSTVNIIVVGQSHLDSNIENQEIVTNPPDICQVVEVTTESDEQPVSMSELYPLQISPVSSYAESETTDSVPSDEESAEGRPHWRKRNIEGKQYLSNMGTRGSYLLPGMASFVTSNKPDLQVTIKEESNPVPYNSSWPPFQDLPLSSSMTPASSSSRPDRETRASVIKKTSDITQARVKSC [IRF2] | 0.0934 | 0.0622 |
| MPYVDRQNRICGFLDIEEHENSGKFLRRYFILDTQANCLLWYMDNPQNLAMGAGAVGALQLTYISKVSIATPKQKPKTPFCFVINALSQRYFLQANDQKDMKDWVEALNQASKITVPKGGGLPMTTEVLKSLAAPPALEKKPQVAYKTEIIGGVVVHTPISQNGGDGQEGSEPGSHTILRRSQSYIPTSGCRASTGPPLIKSGYCVKQGNVRKSWKRRFFALDDFTICYFKCEQDREPLRTIFLKDVLKTHECLVKSGDLLMRDNLFEIITSSRTFYVQADSPEDMHSWIKEIGAAVQALKCHPRETSFSRSISLTRPGSSSLSSGPNSILCRGRPPLEEKKALCKAPSVASSWQPWTPVPQAGEKLLPPGDTSEDSLFTPRPGEGSAPGVLPSSRIRHRSEPQHPKEKPFMFNLDDENIRTSDV [PLEKHA2] | 0.121 | -0.19 |
| MQAKKRYFILLSAGSCLALLFYFGGLQFRASRSHSRREEHSGRNGLHHPSPDHFWPRFPDALRPFVPWDQLENEDSSVHISPRQKRDANSSIYKGKKCRMESCFDFTLCKKNGFKVYVYPQQKGEKIAESYQNILAAIEGSRFYTSDPSQACLFVLSLDTLDRDQLSPQYVHNLRSKVQSLHLWNNGRNHLIFNLYSGTWPDYTEDVGFDIGQAMLAKASISTENFRPNFDVSIPLFSKDHPRTGGERGFLKFNTIPPLRKYMLVFKGKRYLTGIGSDTRNALYHVHNGEDVVLLTTCKHGKDWQKHKDSRCDRDNTEYEKYDYREMLHNATFCLVPRGRRLGSFRFLEALQAACVPVMLSNGWELPFSEVINWNQAAVIGDERLLLQIPSTIRSIHQDKILALRQQTQFLWEAYFSSVEKIVLTTLEIIQDRIFKHISRNSLIWNKHPGGLFVLPQYSSYLGDFPYYYANLGLKPPSKFTAVIHAVTPLVSQSQPVLKLLVAAAKSQYCAQIIVLWNCDKPLPAKHRWPATAVPVVVIEGESKVMSSRFLPYDNIITDAVLSLDEDTVLSTTEVDFAFTVWQSFPERIVGYPARSHFWDNSKERWGYTSKWTNDYSMVLTGAAIYHKYYHYLYSHYLPASLKNMVDQLANCEDILMNFLVSAVTKLPPIKVTQKKQYKETMMGQTSRASRWADPDHFAQRQSCMNTFASWFGYMPLIHSQMRLDPVLFKDQVSILRKKYRDIERL [EXT1] | -0.14 | -0.163 |
| MQGSTRRMGVMTDVHRRFLQLLMTHGVLEEWDVKRLQTHCYKVHDRNATVDKLEDFINNINSVLESLYIEIKRGVTEDDGRPIYALVNLATTSISKMATDFAENELDLFRKALELIIDSETGFASSTNILNLVDQLKGKKMRKKEAEQVLQKFVQNKWLIEKEGEFTLHGRAILEMEQYIRETYPDAVKICNICHSLLIQGQSCETCGIRMHLPCVAKYFQSNAEPRCPHCNDYWPHEIPKVFDPEKERESGVLKSNKKSLRSRQH [NSMCE1] | 0.0262 | -0.0633 |
| MQLEIQVALNFIISYLYNKLPRRRVNIFGEELERLLKKKYEGHWYPEKPYKGSGFRCIHIGEKVDPVIEQASKESGLDIDDVRGNLPQDLSVWIDPFEVSYQIGEKGPVKVLYVDDNNENGCELDKEIKNSFNPEAQVFMPISDPASSVSSSPSPPFGHSAAVSPTFMPRSTQPLTFTTATFAATKFGSTKMKNSGRSNKVARTSPINLGLNVNDLLKQKAISSSMHSLYGLGLGSQQQPQQQQQPAQPPPPPPPPQQQQQQKTSALSPNAKEFIFPNMQGQGSSTNGMFPGDSPLNLSPLQYSNAFDVFAAYGGLNEKSFVDGLNFSLNNMQYSNQQFQPVMAN [TOB1] | 0.14 | -0.114 |
| MQLRKMQTVKKEQASLDASSNVDKMMVLNSALTEVSEDSTTGEELLLSEGSVGKNKSSACRRKREFIPDEKKDAMYWEKRRKNNEAAKRSREKRRLNDLVLENKLIALGEENATLKAELLSLKLKFGLISSTAYAQEIQKLSNSTAVYFQDYQTSKSNVSSFVDEHEPSMVSSSCISVIKHSPQSSLSDVSEVSSVEHTQESSVQGSCRSPENKFQIIKQEPMELESYTREPRDDRGSYTASIYQNYMGNSFSGYSHSPPLLQVNRSSSNSPRTSETDDGVVGKSSDGEDEQQVPKGPIHSPVELKHVHATVVKVPEVNSSALPHKLRIKAKAMQIKVEAFDNEFEATQKLSSPIDMTSKRHFELEKHSAPSMVHSSLTPFSVQVTNIQDWSLKSEHWHQKELSGKTQNSFKTGVVEMKDSGYKVSDPENLYLKQGIANLSAEVVSLKRLIATQPISASDSG [NFIL3] | 0.00864 | 0.104 |
| MQRAVPEGFGRRKLGSDMGNAERAPGSRSFGPVPTLLLLAAALLAVSDALGRPSEEDEELVVPELERAPGHGTTRLRLHAFDQQLDLELRPDSSFLAPGFTLQNVGRKSGSETPLPETDLAHCFYSGTVNGDPSSAAALSLCEGVRGAFYLLGEAYFIQPLPAASERLATAAPGEKPPAPLQFHLLRRNRQGDVGGTCGVVDDEPRPTGKAETEDEDEGTEGEDEGAQWSPQDPALQGVGQPTGTGSIRKKRFVSSHRYVETMLVADQSMAEFHGSGLKHYLLTLFSVAARLYKHPSIRNSVSLVVVKILVIHDEQKGPEVTSNAALTLRNFCNWQKQHNPPSDRDAEHYDTAILFTRQDLCGSQTCDTLGMADVGTVCDPSRSCSVIEDDGLQAAFTTAHELGHVFNMPHDDAKQCASLNGVNQDSHMMASMLSNLDHSQPWSPCSAYMITSFLDNGHGECLMDKPQNPIQLPGDLPGTSYDANRQCQFTFGEDSKHCPDAASTCSTLWCTGTSGGVLVCQTKHFPWADGTSCGEGKWCINGKCVNKTDRKHFDTPFHGSWGMWGPWGDCSRTCGGGVQYTMRECDNPVPKNGGKYCEGKRVRYRSCNLEDCPDNNGKTFREEQCEAHNEFSKASFGSGPAVEWIPKYAGVSPKDRCKLICQAKGIGYFFVLQPKVVDGTPCSPDSTSVCVQGQCVKAGCDRIIDSKKKFDKCGVCGGNGSTCKKISGSVTSAKPGYHDIITIPTGATNIEVKQRNQRGSRNNGSFLAIKAADGTYILNGDYTLSTLEQDIMYKGVVLRYSGSSAALERIRSFSPLKEPLTIQVLTVGNALRPKIKYTYFVKKKKESFNAIPTFSAWVIEEWGECSKSCELGWQRRLVECRDINGQPASECAKEVKPASTRPCADHPCPQWQLGEWSSCSKTCGKGYKKRSLKCLSHDGGVLSHESCDPLKKPKHFIDFCTMAECS [ADAMTS1] | -0.34 | -0.192 |
| MQRRSRGINTGLILLLSQIFHVGINNIPPVTLATLALNIWFFLNPQKPLYSSCLSVEKCYQQKDWQRLLLSPLHHADDWHLYFNMASMLWKGINLERRLGSRWFAYVITAFSVLTGVVYLLLQFAVAEFMDEPDFKRSCAVGFSGVLFALKVLNNHYCPGGFVNILGFPVPNRFACWVELVAIHLFSPGTSFAGHLAGILVGLMYTQGPLKKIMEACAGGFSSSVGYPGRQYYFNSSGSSGYQDYYPHGRPDHYEEAPRNYDTYTAGLSEEEQLERALQASLWDRGNTRNSPPPYGFHLSPEEMRRQRLHRFDSQ [RHBDD1] | -0.291 | -0.0234 |
